Data on one molecule can be found in patent US8586538B2, “Method of treating a patient suffering from a bleeding disorder comprising administering an antibody against the A3-C1 of FVIII” (Stichting Sanquin Bloedvoorziening, priority 2002, dated 2013).

This assay concerns the target T1, interaction between FVIII light chain and LRP (Homo sapiens, UniProt P00451).
T1 construct: from tissue; host or cells: FVIII light chain from plasma; LRP from placenta
T1 sequence (P00451 1668-2351 limits assumed): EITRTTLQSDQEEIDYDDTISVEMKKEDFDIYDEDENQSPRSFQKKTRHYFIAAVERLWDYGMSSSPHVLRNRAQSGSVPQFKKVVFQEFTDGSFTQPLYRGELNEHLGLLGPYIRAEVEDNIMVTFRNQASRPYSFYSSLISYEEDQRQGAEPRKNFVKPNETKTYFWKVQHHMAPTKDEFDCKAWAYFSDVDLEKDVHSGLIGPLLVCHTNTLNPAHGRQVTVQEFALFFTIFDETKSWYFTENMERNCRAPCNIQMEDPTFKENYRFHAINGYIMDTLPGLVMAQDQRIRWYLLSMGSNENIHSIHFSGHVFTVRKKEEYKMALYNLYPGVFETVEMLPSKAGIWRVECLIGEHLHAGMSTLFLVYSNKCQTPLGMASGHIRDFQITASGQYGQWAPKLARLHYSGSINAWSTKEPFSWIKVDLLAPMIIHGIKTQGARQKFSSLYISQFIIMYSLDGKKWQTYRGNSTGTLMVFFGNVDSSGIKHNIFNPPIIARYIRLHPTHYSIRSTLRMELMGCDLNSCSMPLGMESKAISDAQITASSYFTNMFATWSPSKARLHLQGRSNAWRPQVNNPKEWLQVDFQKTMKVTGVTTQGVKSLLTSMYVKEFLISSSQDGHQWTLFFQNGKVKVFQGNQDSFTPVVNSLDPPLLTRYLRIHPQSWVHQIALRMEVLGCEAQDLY
Briefly: SPR competition: FVIII light chain binding to immobilized LRP. Conditions: FVIII light chain 50 nM; scFv 20-500 nM. The protocol: FIG. 4. Effect of scFv antibody fragments on the interaction between FVIII light chain and LRP. A, FVIII light chain (LCh) (25 nM) was incubated with immobilized LRP cluster II (1 pmol/well) in a volume of 50 μl in 150 mM NaCl, 5 mM CaCl2, 1% (w/v) HSA, 0.1% Tween® 20, and 50 mM Tris (pH 7.4) in the presence of various concentrations (0-100 nM) of scFv KM41 (closed circles) or scFv KM36 (open circles) for 2 h at 37° C. After washing with the same buffer, bound FVIII light chain was quantified by incubation with peroxidase-conjugated anti-FVIII antibody CLB-CAg 12 for 15 min at 37° C. Residual binding is expressed as the percentage of binding in the absence of competitor and is corrected for nonspecific binding (less than 5% relative to binding to LRP cluster II-immobilized wells). […] Binding was assessed in the absence (curve 1) or in the presence of increasing concentrations of scFv KM41 (20, 60, 300, 500 nM, curves 2-5, respectively). […]
The kinetics of protein interactions was determined by surface plasmon resonance (SPR) analysis, employing a BIAcore™2000 biosensor system (Biacore AS, Uppsala, Sweden). […] Association of analyte was assessed in 150 mM NaCl, 2 mM CaCl2, 0.005% (v/v) Tween® 20, and 20 mM Hepes (pH 7.4) for 2 min, at a flow rate of 20 μl/min at 25° C. […] Equilibrium dissociation constants (kd) were calculated from the ratio koff/kon. […]

B1: scFv KM41: scFv antibody fragment directed against FVIII region Arg^1803-Lys^1818 (protein)
scFv: QVQLLQSAADVKKPGASVKVSCTASGYIFTSYDIDWVRQATGQGLEWMGWMNPNSGNAGFAQKFKGRLTLTRDTSTSTAYMELRRLESEDTAVYYCARSTPHSYSGSGLPPTSDSWGQGTLVTVSSGGGGSGGGGSGGGGSEIVLTQSPGTLSLSPGERATLSCRASQSVSSSFLGWYQQKPGQAPRLLIYGASSRATGIPDRFSGSGSGTDFTLTISRLEPEDFAVYYCQQYGISPLTFGGGTKLEIKRAAAEQKLISEEDLNGAAHHHHHH
Consider B1, for which the “Effect on association of FVIII light chain with immobilized LRP” value is on record as “only partially inhibits”.
